Here are results for 5 molecules from patent US10280197B2, “Discovery of the first selective C5A receptor 2 (C5L2/C5AR2) ligands” (The Regents of the University of California, priority 2015, dated 2019).

A short description of data set [1]: Estimated blood concentration after i.v. dose. Type of data set: in vivo. Particulars: C57BL/6J, whole blood, intravenous; 3 mg/kg, assuming a blood volume of 2 mL for a 25 g mouse. As for the experimental part:
To further explore the selectivity of the ligands P32 was tested in a mouse model of C5a-induced neutrophil mobilization (FIG. 6). […] Assuming a mouse blood volume of 2 mL for a 25 g mouse, a concentration of 3 mg/kg would result in Cmax blood concentrations of ˜50 uM, a dose within the active range of this compound from our in vitro studies

Data set [2] has as its target T1, human C5a2 (Flp-In CHO-C5a2 membranes) (Homo sapiens, UniProt Q9P296).
T1 construct: expressed in transfected cells
Put plainly: C5a2 receptor binding, scintillation proximity assay (125I-C5a displacement). Particulars: concentrations up to 1 μM. As for the experimental part: Membranes were prepared from Flp-In CHO-05a2 cells by a previously described method^46. Briefly, cells were washed with PBS, pH 7.4, and harvested into buffer (50 mM Tris-HCl, pH 7.4, 5 mM MgCl2, 1 mM CaCl2) before homogenizing with a Polytron homogenizer for 3 min on setting 22. Cells were centrifuged at 150×g for 5 min at 4° C. The supernatant was recovered and centrifuged at 22 000×g for 1 h at 4° C. Membrane pellets were then resuspended in 0.4 mL of ice-cold buffer (50 mM Tris-HCl, pH 7.4, 5 mM MgCl2, 1 mM CaCl2, containing 10% glycerol) with aliquots stored at −80° C. The protein concentration of the membrane preparation was determined by Bradford method^47.
C5a2 receptor binding studies were performed using a modification of a previously described scintillation proximity assay (SPA) method^48. Briefly, C5a2 SPA studies were performed in 96-well white isoplates with clear flat bottoms (Perkin Elmer, Waltham, Mass., USA). SPA beads (200 μg/well) were added, following the addition of various concentrations of competing ligands or buffer (6 pM to 500 μM) in a total volume of 80 μL of assay buffer (50 mM Tris-HCl, pH 7.4, 0.5% BSA, 5 mM MgCl2, 1 mM CaCl2). ^125I-C5a (˜20 pM) (specific activity, 2200 Ci mmol^−1) (Perkin Elmer) was added to C5a2 membrane preparations (˜2 μg/well). The final reaction volume per well comprised 20 μL of ligand/buffer, 20 μL of SPA beads, 20 μl of membrane and the assay was initiated by the addition of 20 μL of ^125I-C5a. The plate was then sealed using TopSeal-A (Perkin Elmer) sealing film and incubated with shaking for 1 h at room temperature. Radioligand binding was then assessed for 30 s/well using a 1450 Microbeta scintillation counter (Perkin Elmer).
In general terms: SPA uses beads or plates that emit light when radiolabelled molecules are held near them.

Another data set has as its target C5a2 (Homo sapiens, UniProt Q9P296). Put plainly: BRET C5a2-β-arrestin 2 recruitment assay in HEK293 cells. The format is cell-based. Details: expressed in transfected cells; host or cells: HEK293 (transient). As for the experimental part:
Assays were performed as a ligand-induced BRET experiment similar to previously described^17, 31, 49. In brief, HEK293 cells were transiently transfected with either C5a1-Rluc8 and β-arrestin 2-Venus or C5a2-Venus and β-arrestin 2-Rluc8 or C5a1-Rluc8 and C5a2-Venus in a 100-mm dish. 24 h after transfection cells were collected and transferred to a 96-well white microplate (Corning, N.Y., USA) in phenol-red free DMEM containing 5% FBS and 25 mM HEPES (Life Technologies). Cells were allowed to settle for 24 h and then were incubated with 30 μM Enduren (Promega, Madison, Wis., USA) for 2 h at 37° C. and 5% CO2 to ensure that the substrate had reached equilibrium. Following incubation BRET baseline measurements were taken for 15 min then ligands were added to plate and BRET measurements were taken for a further 1 h at 37° C. using a POLARstar optima microplate reader (BMG Labtech, Ortenberg, Germany). Filtered light emissions were sequentially measured for 1 s in each of the following windows 460-490 nm and 520-550 nm, both before and following ligand addition. The ligand-induced BRET ratio was calculated by subtracting the ratio of 520-550 nm emission over the 460-490 nm emission for a vehicle-treated sample from a ligand-treated sample of the same aliquot of cells in triplicate. The BRET ratio was calculated by subtracting the ratio of 520-550 nm emission over the 460-490 nm emission for a cell sample containing the C5a1-Rluc8 or β-arrestin 2-Rluc8 construct from a cell sample containing both the C5a1-Rluc8 and β-arrestin 2-Venus or C5a2-Venus and β-arrestin 2-Rluc8 or C5a1-Rluc8 and C5a2-Venus constructs. Peptides were also tested for ligand-induced β-arrestin 2 recruitment at 100 μM using DiscoveRx PathHunter kits for human C5a1 and C5a2 (DiscoveRx Corporation. Birmingham, UK), according to the manufacturer's instructions.

Data set [3] concerns LPS stimulated HMDM. Put plainly: Cytokine release from LPS stimulated HMDM (ELISA). The format is cell-based, human. Particulars: C5a1 antagonist PMX53 10 μM pre-incubated 30 min. As for the experimental part: FIG. 4 is a panel of graphs showing the testing P32 and P59 for effects on cytokine release from LPS stimulated HMDM. Measurement of human inflammatory cytokines IL-6 (4A, 4B), TNFα (4C, 4D) and IL-10 (4E, 4F) release from HMDM, 24 h after co-stimulation with LPS (10 ngml^−1) and C5a (0.1-100 nM), P32 or P59 (0.1-100 μM) with or without C5a1 antagonist PMX53 (10 μM) present. Cytokine release was quantified by ELISA. Data is representative of five independent HMDM donors performed in triplicate (n=5). CTRL represents non-stimulated HMDM. Data is normalised to LPS response (100%) for each donor. Error bars represent SEM. *P<0.05, ** P<0.01, *** P<0.001, **** P<0.0001 by one-way ANOVA followed by Dunnett's post hoc test or Sidak's post hoc test for comparisons+/−PMX53.
Briefly, HMDMs were seeded in 96 well tissue culture plates (Nunc) at 100 000 cells/well and allowed to adhere overnight at 37° C. and 5% CO2. The next day HMDMs were stimulated with E. coli derived LPS (10 ng ml^−1) only or LPS (10 ng ml^−1) and either C5a or C5a2 ligands at various concentrations (1-100 nM (C5a) or 0.1-100 μM (C5a2 ligands)). For testing cytokine release in the presence of C5a1 antagonist (PMX53), cells were pre-incubated with PMX53 at 10 μM for 30 min prior to addition of C5a or C5a2 ligands. Following ligand addition HMDMs were returned to 37° C. and 5% CO2 incubator and 24 h after stimulation supernatant was removed from cells and transferred to 96 well polypropylene microplate (Nunc) and stored at −20° C. till needed for assay. Quantification of cytokine release was performed using ELISA kits (BD OptEIA™) as per manufacturers' instructions (BD Biosciences, San Jose, Calif., USA).
(In general: In an ELISA, binding on a coated surface is turned into a signal by an enzyme label.)

The next data set concerns the target T2, C5a1-C5a2 heteromer (Homo sapiens, UniProt P21730+Q9P296).
T2 construct: expressed in transfected cells; host or cells: HEK293 (transient)
The conditions noted are these: high concentrations of C5a, previously shown; cited from earlier work.

Data set [4] concerns LPS stimulated HMDM. The conditions noted are these: literature reference 33; cited from earlier work.

T1 sequence (Q9P296 whole entry): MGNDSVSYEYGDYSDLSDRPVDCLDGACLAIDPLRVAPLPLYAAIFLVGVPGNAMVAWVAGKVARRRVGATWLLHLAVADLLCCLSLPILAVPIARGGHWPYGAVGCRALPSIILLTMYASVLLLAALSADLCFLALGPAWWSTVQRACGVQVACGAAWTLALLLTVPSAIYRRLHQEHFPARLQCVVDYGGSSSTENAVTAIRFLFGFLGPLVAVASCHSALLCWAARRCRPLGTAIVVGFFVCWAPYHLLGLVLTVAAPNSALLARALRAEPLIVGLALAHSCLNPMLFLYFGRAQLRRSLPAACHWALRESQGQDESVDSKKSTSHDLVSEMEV
C5a2, sequence (Q9P296 whole entry): as above
C5a2, sequence (P32121 whole entry partner): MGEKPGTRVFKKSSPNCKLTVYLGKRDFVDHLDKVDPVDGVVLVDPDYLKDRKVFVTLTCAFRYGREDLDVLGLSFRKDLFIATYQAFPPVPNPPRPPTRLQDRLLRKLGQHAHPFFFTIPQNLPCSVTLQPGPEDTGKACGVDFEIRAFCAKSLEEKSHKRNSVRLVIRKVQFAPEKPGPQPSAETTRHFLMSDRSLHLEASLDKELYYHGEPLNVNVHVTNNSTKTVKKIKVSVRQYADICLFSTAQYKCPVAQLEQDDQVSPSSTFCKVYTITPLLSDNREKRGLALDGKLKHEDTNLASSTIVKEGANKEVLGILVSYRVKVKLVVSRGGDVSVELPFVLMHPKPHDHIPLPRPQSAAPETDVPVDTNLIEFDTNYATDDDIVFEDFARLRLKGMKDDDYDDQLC
T2 sequence (P21730 whole entry): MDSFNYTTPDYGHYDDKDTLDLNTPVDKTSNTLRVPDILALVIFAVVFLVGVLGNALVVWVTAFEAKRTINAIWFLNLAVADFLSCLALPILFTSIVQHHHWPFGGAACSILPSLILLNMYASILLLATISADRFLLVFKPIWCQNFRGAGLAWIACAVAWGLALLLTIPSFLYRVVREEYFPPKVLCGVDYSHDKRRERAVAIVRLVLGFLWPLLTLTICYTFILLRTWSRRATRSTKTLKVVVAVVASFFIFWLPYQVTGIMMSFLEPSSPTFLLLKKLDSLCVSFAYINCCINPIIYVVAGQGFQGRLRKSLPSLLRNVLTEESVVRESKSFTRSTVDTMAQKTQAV
T2 sequence (Q9P296 whole entry): as the sequence (Q9P296 whole entry) above

One may read the Cmax as the highest concentration seen after dosing. In the case of “Ac-RHYPYWR-OH [Peptide P32, Ac-RHYPYWR-OH]”, the Cmax in data set [1] was approximately 50 µM.
Consider “C3a-des Arg: human isolated C3a-des Arg/acylation-stimulating protein (ASP), purchased from Merck Biosciences”, for which the “displacement of 125I-C5a from Flp-In CHO-C5a2 membrane preparations” value (“displacement of 125I-C5a” for short) in data set [2] is “do not bind”.
The same measure, in the same setting: next, “C3a: human isolated complement protein purchased from Merck Biosciences [Peptide C3a]”: “do not bind”.

B1: C5a: complement activation peptide; human recombinant C5a purchased from Sino Biologicals (protein)
chain: TLQKKIEEIAAKYKHSVVKKCCYDGACVNNDETCEQRAARISLGPRCIKAFTECCVVASQLRANISHKDMQLGR
The term EC50 denotes the concentration at which the effect is half-maximal. For the molecule B1, the “displacement of 125I-C5a” value in data set [2] is “full inhibition”. Moreover, the “C5a2-β-arrestin 2 BRET Recruitment (% of C5a)” value in the data set with C5a2 was 100 % of C5a. For the same molecule, in the data set with C5a2 (calculated at ~40 min after ligand addition), the EC50 is 50.3 ± 4.2 nM. In the data set on LPS stimulated HMDM [3], the “IL-6 release from LPS stimulated HMDM in the presence of PMX53” value is on record as “completely blocked”, the “IL-10 release from LPS stimulated HMDM in the presence of PMX53” value is given as “completely blocked” and the “TNFα release from LPS stimulated HMDM in the presence of PMX53” value is on record as “completely blocked”. Moreover, the “up-regulation of heteromer formation between C5a1-C5a2” value with C5a1-C5a2 heteromer is on record as “can up-regulate heteromer formation”. In addition, in the data set on LPS stimulated HMDM [4], the “IL-6 release from LPS stimulated HMDMs” value is “dose-dependently inhibits”, the “IL-10 release from LPS stimulated HMDMs” value is on record as “increasing the release” and the “TNFα release from LPS stimulated HMDMs” value is recorded as “dose-dependently inhibits”.

B2: C5a-des Arg: human isolated complement protein purchased from Merck Biosciences (protein)
chain: TLQKKIEEIAAKYKHSVVKKCCYDGACVNNDETCEQRAARISLGPRCIKAFTECCVVASQLRANISHKDMQLG
As for B2, the “displacement of 125I-C5a” value in data set [2] is “full inhibition”.
